{"source": "patent US20220288223", "key": {"[1]": {"test_system": "RACPP with substrate PLGC(me)AG"}, "[2]": {"test_system": "RACPP with substrate PLGLEEA"}, "[3]": {"test_system": "RACPP with substrate YGRAAA"}, "[4]": {"test_system": "RACPP with substrate TGRAAA"}, "[5]": {"test_system": "RACPP with substrate GVAYSGA"}, "[6]": {"test_system": "RACPP with substrate RLQLK(Ac)L"}, "[7]": {"test_system": "RACPP with substrate TIAHLA"}}}
{"substance": "MMP-9", "values": [{"measurement": "Kcat/Km", "setting": "[1]", "value": 13500}, {"measurement": "Kcat/Km", "setting": "[2]", "value": 1480}]}
{"substance": "Elastase", "values": [{"measurement": "Kcat/Km", "setting": "[3]", "value": 943}, {"measurement": "Kcat/Km", "setting": "[1]", "value": 4000}, {"measurement": "Kcat/Km", "setting": "[4]", "value": 349}, {"measurement": "Kcat/Km", "setting": "[5]", "value": 4550}, {"measurement": "Kcat/Km", "setting": "[6]", "value": 13400}, {"measurement": "Kcat/Km", "setting": "[7]", "value": 18200}]}
